Assay results taken from paper PMC10889901, “Deciphering the structure of a multi-drug resistant Acinetobacter baumannii short-chain dehydrogenase reductase” (PLOS ONE, 2024).

Target: the molecule itself
Assay: crystal structure; hanging-drop vapour diffusion, 23°C, 0.2 M lithium sulphate monohydrate, 0.1 M TRIS hydrochloride pH 8.5, 30% PEG 8,000; single protomer in the asymmetric unit, tetramer found by PISA analysis of the crystal

B1: Acinetobacter baumannii short-chain dehydrogenase reductase (enzyme)
chain: SNAMKLDLQNKIAVVSGSTSGIGLGIAKGLASAGATVVVVGRKQAGVDEAIAHIRQSVPEASLRGVDADLTTEQGAAALFAAEPKADILVNNLGIFNDEDFFSVPDEEWMRFYQVNVLSGVRLARHYAPSMVEQGWGRIIFISSESGVAIPGDMINYGVTKSANLAVSHGLAKRLAGTGVTVNAVLPGPTFTDGLENMLADAAAKAGRSTRDQADEFVKVLRPSSIIQRAAEVDEVANMVVYIASPLSSATSGAALRVDGGVVDTLV
notes: residues of the vector printed after the TEV cleavage site (ENLYFQ/SNA), left on the protein after the tag is removed; short-chain dehydrogenase reductase (SDR) of Acinetobacter baumannii; Vector pMCSG21; one protomer in the asymmetric unit, the tetramer comes from crystal symmetry (PISA); also called SDR; SDR enzyme; source: E. coli BL21(DE3) pLysS, purified (HisTrap, TEV cleavage, Superdex …)
stoichiometry N: 4
